The values below come from IntAct's records for PubMed 18820298.

B1: CCAAT/enhancer-binding protein beta (Homo sapiens), P17676-2 (parent)
chain: MEVANFYYEADCLAAAYGGKAAPAAPPAARPGPRPPAGELGSIGDHERAIDFSPYLEPLGAPQAPAPATATDTFEAAPPAPAPAPASSGQHHDFLSDLFSDDYGGKNCKKPAEYGYVSLGRLGAAKGALHPGCFAPLHPPPPPPPPPAELKAEPGFEPADCKRKEEAGAPGGGAGMAAGFPYALRAYLGYQAVPSGSSGSLSTSSSSSPPGTPSPADAKAPPTACYAGAAPAPSQVKSKAKKTVDKHSDEYKIRRERNNIAVRKSRDKAKMRNLETQHKVLELTAENERLQKKVEQLSRELSTLRNLFKQLPEPLLASSGHC

In this assay the parent is B1. The settings on record: with hdac4_human HDAC4, P56524.
Chain of hdac4_human HDAC4, P56524 (P56524 whole entry): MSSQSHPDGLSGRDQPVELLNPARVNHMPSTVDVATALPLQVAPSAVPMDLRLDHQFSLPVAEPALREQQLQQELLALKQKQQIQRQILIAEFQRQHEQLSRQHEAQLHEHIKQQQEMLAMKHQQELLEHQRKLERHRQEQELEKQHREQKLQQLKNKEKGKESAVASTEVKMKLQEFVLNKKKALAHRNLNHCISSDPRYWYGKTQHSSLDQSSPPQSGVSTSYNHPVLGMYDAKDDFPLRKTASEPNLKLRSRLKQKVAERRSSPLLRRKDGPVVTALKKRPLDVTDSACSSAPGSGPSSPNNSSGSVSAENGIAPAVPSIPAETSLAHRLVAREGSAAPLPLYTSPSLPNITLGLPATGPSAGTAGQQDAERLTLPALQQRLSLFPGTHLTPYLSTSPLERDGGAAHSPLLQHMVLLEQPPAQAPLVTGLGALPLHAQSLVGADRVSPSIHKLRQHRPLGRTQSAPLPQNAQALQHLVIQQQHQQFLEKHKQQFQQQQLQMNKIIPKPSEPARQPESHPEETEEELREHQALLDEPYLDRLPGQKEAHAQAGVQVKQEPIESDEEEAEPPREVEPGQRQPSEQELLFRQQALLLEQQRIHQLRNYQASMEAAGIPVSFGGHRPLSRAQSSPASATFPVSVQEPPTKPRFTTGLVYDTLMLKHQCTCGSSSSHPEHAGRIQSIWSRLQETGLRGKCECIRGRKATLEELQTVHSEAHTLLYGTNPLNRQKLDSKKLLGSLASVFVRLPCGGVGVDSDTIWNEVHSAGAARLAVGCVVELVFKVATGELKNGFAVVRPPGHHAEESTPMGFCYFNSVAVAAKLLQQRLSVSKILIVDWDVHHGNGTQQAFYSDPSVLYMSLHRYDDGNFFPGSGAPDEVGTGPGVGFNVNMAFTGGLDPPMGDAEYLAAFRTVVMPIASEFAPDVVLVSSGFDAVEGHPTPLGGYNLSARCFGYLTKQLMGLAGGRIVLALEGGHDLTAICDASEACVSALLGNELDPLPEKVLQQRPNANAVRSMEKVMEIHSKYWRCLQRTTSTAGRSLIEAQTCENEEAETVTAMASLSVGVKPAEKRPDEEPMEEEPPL
Regarding MEVANFYYEADCLAAAYGGKAAPAAPPAARPGPRPPAGELGSIGDHERAIDFSPYLEPLGAPQAPAPATATDTFEAAPPAPAPAPASSGQHHDFLSDLFSDDYGGKNCKKPAEYGYVSLGRLGAAKGALHPGCFAPLHPPPPPPPPPAELAAEPGFEPADCKRKEEAGAPGGGAGMAAGFPYALRAYLGYQAVPSGSSGSLSTSSSSSPPGTPSPADAKAPPTACYAGAAPAPSQVKSKAKKTVDKHSDEYKIRRERNNIAVRKSRDKAKMRNLETQHKVLELTAENERLQKKVEQLSRELSTLRNLFKQLPEPLLASSGHC [K151A], the “effect of a mutation on the interaction” value is reported as “with no effect”.
